Molecular target: T1, PSD‐95 third PDZ domain (residue 307–446) (UniProt P78352 307-446)
T1 construct: also called PSD‐95 (3); PSD‐95 (domain 3); source: spotted on a PDZ array membrane (Zhang et al. 2007)
Assay: peptide or protein array; PDZ filter overlay: 96 Class I PDZ domains spotted on a nylon membrane; overlaid with 100 nmol/L GST/NBCn1 (or GST only) in blot buffer (50 mmol/L NaCl, 2% dry milk, 0.1% Tween 20, 10 mmol/L HEPES; pH 7.4) for 1 h at room temperature; detected with HRP-conjugated anti-GST antibody; done three times
Conditions: both partners purified

T1 sequence (P78352 307-446): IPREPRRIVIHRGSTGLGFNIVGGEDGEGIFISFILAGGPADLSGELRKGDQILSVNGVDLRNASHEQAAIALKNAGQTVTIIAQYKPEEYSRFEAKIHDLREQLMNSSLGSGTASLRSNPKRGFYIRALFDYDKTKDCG

B1: GST/NBCn1 fusion protein containing the C‐terminal 26 amino acids of rat NBCn1 (domain or fragment, UniProt Q9R1N3-2 1229-1254, looked up)
chain: PEKPVSVTINFEDEPSKKYMDAETSL
notes: NBCn1 (SLC4A7), rat, the C-terminal 26 amino acids; also called C‐terminal domain of NBCn1 fused to GST; source: prepared as described previously (Lee et al. 2012)
B1: binds.
